Laboratory results: US20220177587A1, “METHODS AND USES OF VARIANT CD80 FUSION PROTEINS AND RELATED CONSTRUCTS” (Alpine Immune Sciences, Inc., priority 2018, published 2022)
Residue numbers refer to the chain shown, from its start. Names and notes keep the numbering of the source. Values belong to the molecule of their own block, whether it stands above or below them.

Tests used:
CD28 [1] = target: T1, CD28 (Homo sapiens, UniProt P10747); test: Flow binding to Jurkat/IL2 reporter cells (CD28); set-up: host or cells: Jurkat cells expressing an IL-2-luciferase reporter
Method in brief: (§1)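 Binding EC50 and PE mean fluorescence intensity derived by flow cytometry using PE-labelled anti-human Fc secondary. Target cells were CTLA4- or PD-L1-transfected CHO lines and CD28-expressing Jurkat/IL2 reporter cells, stained with fusion proteins on ice for 45 min following BSA blocking.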

CD28 [2] = target: T1, CD28; test: Jurkat/IL2 + K562/OKT3/PD-L1 reporter assay; assay type: cell-based; set-up: host or cells: Jurkat cells expressing an IL-2-luciferase reporter; details: K562/OKT3/PD-L1 aAPC, 50 nM
huCTLA4 = huCTLA4 (Homo sapiens, UniProt P16410); test: Flow binding to CHO cells stably expressing CTLA4; set-up: huCTLA4 and huPD-L1, full-length mammalian surface expression constructs were generated; expressed in transfected cells; host or cells: CHO cells, lentiviral transduction, sorted to >98% purity
Method in brief: as §1

huPD-L1 = huPD-L1 (Homo sapiens, UniProt Q9NZQ7); test: Flow binding to CHO cells stably expressing PD-L1; set-up: huCTLA4 and huPD-L1, full-length mammalian surface expression constructs were generated; expressed in transfected cells; host or cells: CHO cells, lentiviral transduction, sorted to >98% purity
Method in brief: as §1

CD28 [3] = target: T1, CD28; test: Jurkat/IL2 + CHO/OKT3 +/- PD-L1 reporter assay: PD-L1-dependent CD28 costimulation; assay type: cell-based; set-up: host or cells: Jurkat cells expressing an IL-2-luciferase reporter; details: Table E22; Jurkat/IL2 + CHO/OKT3/PD-L1; CD80 Conc 5.0 nM
Method in brief: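 Readout is relative luminescence from lysed cocultures: test protein given 15 min at room temperature to Jurkat cells before adding CHO artificial APCs displaying OKT3 alone or OKT3 plus PD-L1, then 5 h at 37 °C, 5% CO2.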

[4] = Table E4, 33.3 nM variant CD80 IgV-Fc, CHO cells stably expressing CTLA4
[5] = Table E4, MFI ratio to WT CD80 ECD-Fc (R&D) at 33.3 nM

Chain of huCTLA4 (P16410 36-223): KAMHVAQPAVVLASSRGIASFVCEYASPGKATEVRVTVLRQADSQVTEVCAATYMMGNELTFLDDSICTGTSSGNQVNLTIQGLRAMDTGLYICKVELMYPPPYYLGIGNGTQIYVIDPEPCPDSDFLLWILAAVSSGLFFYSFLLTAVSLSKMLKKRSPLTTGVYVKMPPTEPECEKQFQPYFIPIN
Chain of huPD-L1 (Q9NZQ7 19-290): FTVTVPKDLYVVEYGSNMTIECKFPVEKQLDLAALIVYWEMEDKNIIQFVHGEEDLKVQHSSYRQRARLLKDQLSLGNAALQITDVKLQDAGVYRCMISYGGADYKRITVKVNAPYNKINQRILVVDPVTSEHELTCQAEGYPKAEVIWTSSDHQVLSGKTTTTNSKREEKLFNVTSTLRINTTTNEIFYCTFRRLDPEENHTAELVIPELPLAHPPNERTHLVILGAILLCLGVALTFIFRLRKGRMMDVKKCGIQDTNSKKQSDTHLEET

B2: V22L/Q27H/E35D/M47I/A71G (protein)
chain: VIHVTKEVKEVATLSCGHNVSLEELAHTRIYWQKDKKMVLTMMSGDINIWPEYKNRTIFDITNNLSIVILGLRPSDEGTYECVVLKYEKDAFKREHLAEVTLSVKADFPTPSISDFETPTSNIRRIICSTSGGFPEPHLSWLENGEELNAINTTVSQDPETELYAVSSKLDFNMTTNHSFMCLIKYGHLRVNQTFNWNTTKQEHFPDN
modifications: CD80 v274 ECD
CD28 MFI at 33.3 nM (CD28 [1]; Table E4, Jurkat cells (CD28)): 7269 | Relative Luciferase Units (RLU), CD80-Fe Cone 50 nM (CD28 [2]; Table E8): 1123 RLU | CTLA4 MFI at 33.3 nM (huCTLA4; [4]): 151600

B4: A26E/E35D/M47L/A71G (protein)
chain: VIHVTKEVKEVATLSCGHNVSVEELEQTRIYWQKDKKMVLTMMSGDLNIWPEYKNRTIFDITNNLSIVILGLRPSDEGTYECVVLKYEKDAFKREHLAEVTLSVKAD
CD28 MFI at 33.3 nM (CD28 [1]; Table E4, Jurkat cells (CD28)): 2161 | CD28 MFI at 33.3 nM (CD28 [1]; Table E20, Jurkats (CD28)): 236 | Relative Luciferase Units (RLU), CD80 Conc 5.0 nM (CD28 [3]): 766 RLU | Relative Luciferase Units (RLU), CD80-Fe Cone 50 nM (CD28 [2]; Table E8): 1748 RLU

B6: H18Y/A26E/E35D/M47L/L85Q/D90G (protein, UniProt P33681 35-288, looked up, variant H18Y A26E E35D M47L L85Q D90G)
T-lymphocyte activation …: VIHVTKEVKEVATLSCGYNVSVEELEQTRIYWQKDKKMVLTMMSGDLNIWPEYKNRTIFDITNNLSIVILALRPSDEGTYECVVQKYEKGAFKREHLAEVTLSVKADFPTPSISDFEIPTSNIRRIICSTSGGFPEPHLSWLENGEELNAINTTVSQDPETELYAVSSKLDFNMTTNHSFMCLIKYGHLRVNQTFNWNTTKQEHFPDNLLPSWAITLISVNGIFVICCLTYCFAPRCRERRRNERLRRESVRPV
CD28 MFI at 33.3 nM (CD28 [1]; Table E4, Jurkat cells (CD28)): 3540 | Relative Luciferase Units (RLU), CD80-Fe Cone 50 nM (CD28 [2]; Table E8): 1506 RLU | CTLA4 MFI at 33.3 nM (huCTLA4; [4]): 230588

Results, then the molecule that gave them:

CD28 MFI at 33.3 nM (CD28 [1]; Table E4, Jurkat cells (CD28)): 15299 | Relative Luciferase Units (RLU), CD80-Fe Cone 50 nM (CD28 [2]; Table E8): 1388 RLU | CTLA4 MFI at 33.3 nM (huCTLA4; [4]): 245711
B1: V22A/E35D/M47I/Y87N (protein)
chain: B2 chain with L22A, H27Q, G71A, Y87N
modifications: CD80 v253 ECD

CD28 MFI at 33.3 nM (CD28 [1]; Table E3): 646 | CD28 MFI at 33.3 nM (CD28 [1]; Table E19, Jurkats (CD28)): 46.3 | Relative Luciferase Units (RLU), CD80-Fc Conc. 50 nM (CD28 [2]; Table E7): 2852 RLU | CTLA4 MFI at 33.3 nM (huCTLA4; Table E3, 33.3 nM): 336179 | CTLA4 MFI at 33.3 nM (huCTLA4; Table E19, CHO cells stably expressing CTLA4, 33.3 nM): 12909 | PD-L1 MFI at 33.3 nM (huPD-L1; Table E3): 33200 | PD-L1 MFI at 33.3 nM (huPD-L1; Table E19, CHO cells stably expressing PD-L1): 6097
B3: E35D/M47L/L85Q: variant CD80 IgV-Fc, IgV SEQ ID NO:418 (protein)
chain: B4 chain with E26A, G71A, L85Q

CD28 MFI at 33.3 nM (CD28 [1]; Table E4, Jurkat cells (CD28)): 644 | CD28 Fold change to WT CD80 (CD28 [1]; [5]): 0.04 | Fold Increase over WT CD80-IgV-Fe (CD28 [2]; Table E8): 1.0 | Relative Luciferase Units (RLU), CD80-Fe Cone 50 nM (CD28 [2]; Table E8): 213 RLU | CTLA4 MFI at 33.3 nM (huCTLA4; [4]): 116798 | CTLA4 Fold change to WT CD80 (huCTLA4; [5]): 0.74 | PD-L1 MFI at 33.3 nM (huPD-L1; Table E4, CHO cells stably expressing PD-L1): 31151 | PD-L1 Fold change to WT CD80 (huPD-L1; [5]): 2.62 | Ratio of PDL1:CD28 (huPD-L1; Table E4, binding to PD-L1 compared to binding to CD28): 48
B5: Q33L/E35D/M47I/N48D/A71G (protein, UniProt P33681 35-288, looked up, variant Q33L E35D M47I N48D A71G)
T-lymphocyte activation …: B6 T-lymphocyte activation … with Y18H, E26A, Q33L, L47I, N48D, A71G, Q85L, G90D
